Patent publication US20240165209A1, “PLACENTAL ALKALINE PHOSPHATASE FOR REDUCING THE LOSS OF RED BLOOD CELLS, WHITE BLOOD CELLS, AND PLATELETS IN CHEMOTHERAPY TREATED CANCER PATIENTS” (ZOLTAN LABORATORIES, LLC, priority 2021, published 2024)

What was measured:
bone marrow MSCs = test: DNA synthesis ([3H]thymidine incorporation) in MSCs; assay type: cell-based, human; conditions: 20 hours
Description: For the experiment, bone marrow aspirates were taken from normal human adult donors after informed consent. For the preparation of bone marrow MSCs, essentially a widely used technique was used as described earlier by others [Pittenger, M. F., Mackay, A. M., Beck, S. C., et al. (1999) Multilineage potential of adult human mesenchymal stem cells. Science 284, 143-147]. Briefly, nucleated cells were isolated with a pre-prepared commercial density gradient (Lymphoprep, Nycomed, Pharma, Oslo, Norway) and re-suspended in Dulbecco's modified Eagle's medium (DMEM) (GIBCO, Grand Island, NY) supplemented with 10% fetal calf serum (FCS), 50 U/ml of penicillin, and 50 μg/ml of streptomycin (GIBCO). All nucleated cells were plated in 25-cm^2 flasks (BD Falcon, Bedford, MA) at 37° C. in humidified atmosphere containing 5% CO2. After 24 hours, non-adherent cells were removed and cryopreserved in liquid nitrogen until use. The remaining adherent cells were thoroughly washed with Hanks balanced salt solution (HBSS) (GIBCO). Fresh complete culture medium was added and replaced every 3 or 4 days (twice a week). When cells grew to about 80% confluence, they were suspended and harvested by incubating with a ready-made solution containing 0.25% trypsin and 1 mM EDTA (Sigma-Aldrich, St. Louis, MO) for 5 minutes at 37° C.; this cell suspension is designated as passage 1. These cells were further expanded with 1:3-1:5 splitting in 175-cm^2 flasks (BD Falcon). For the determination of DNA synthesis, cells were divided into 12-well plates in the complete medium and let the cells grow to about 60% confluence. After changing the spent medium for fresh complete medium (i.e., containing 10% fetal calf serum), cells were treated for 20 hours with 20-100 μM ATP and/or 200 nM PLAP as well as 50-200 μM Cyp in the absence or presence of 200 nM PLAP. For labeling newly formed DNA, cells received 1,130,000 d.p.m. [^3H] thymidine for the last 4 hours of the treatment period. DNA synthesis was determined as described earlier [She, Q.-B., Mukherjee, J. J., Huang, J.-S., Crilly, K. S. and Kiss, Z. (2000) Growth factor-like effects of placental alkaline phosphatase in human fetus and mouse embryo fibroblasts. FEBS Lett. 469, 163-167]. The data is expressed as d.p.m. [^3H] thymidine incorporated into DNA/well (n=3).

[1] = amifostine treatment, intravenous route, cancer patients; cited from earlier work
[2] = test system: mouse bone marrow-derived hematopoietic stem cells (HSCs); conditions: 3 days
Experimental: Bone marrow was harvested by flushing bones from female C57/BL/6 mice in Fischer medium (Thermo Fisher Scientific; catalogue no. 21475025) containing 20% horse serum (Hyclone, Logan, UT), 100 Unit/ml penicillin, […] streptomycin (Gibco, BRL), 0.015 fungizone (Gibco, BRL), and 0.1 μM hydrocortisone sodium succinate (SynoPharm; Hamburg, Germany). Pooled stem cells were seeded into 25 cm 3 flasks (10 ml cell suspension) and after 3 days of incubation at 33° C. in 5% CO2 in air in the absence of PLAP, they were plated into 12-well plates and were incubated in the absence (n=8) or presence of 50 μg/ml PLAP (n=8) for additional 3 days.
In a follow up experiment with hematopoietic stem cells, the same incubation medium in 12-well plates contained either no other addition (n=8) or contained 200 μM Cyp without (n=8) or with 50 μg/ml PLAP (n=8) for 3 days.

[3] = purified PLAP; cited from earlier work
[4] = Spectrophotometric assay of PLAP enzyme activity (hydrolysis of 4-nitrophenylphosphate); assay type: biochemical; conditions: 22° C., pH 9.8, 10 mM 4-nitrophenylphosphate
Description: Human PLAP (Type XXIV, 1020 units of total activity) in a partially purified form was obtained commercially from Sigma-Aldrich. A butanol extraction of placental tissue performed by Sigma-Aldrich to obtain the partially purified material was followed by chromatography steps as described in [Chang, T.-C., Huang, S.-M, Huang, T.-M. and Chang, G.-G. Human placental alkaline phosphatase: An improved purification procedure and kinetic studies. Eur. J. Biochem. 209, 241-247, 1992] to obtain an essentially pure preparation of PLAP as determined by sodium dodecyl sulfate-polyacrylamide gel electrophoresis (SDS-PAGE). The enzyme activity of PLAP was assayed using a spectroscopic method to monitor the hydrolysis of 4-nitrophenylphosphate (as an increase in absorbance at 410 nm) at room temperature (22° C.) as described in [Chang, G.-G., Shiao, M.-S., Lee, K.-R. and Wu, J.-J., Modification of human placental alkaline phosphatase by periodate-oxidized 1,N6-ethenoadenosine monophosphate. Biochem. J., 272, 683-690, 1990]. Activity analysis of 5-10-μg purified enzyme was performed in 1 mL incubation volume containing 50 mM Na2CO3/NaHCO3, 10 mM MgCl2, 10 mM 4-nitrophenylphosphate at pH 9.8. The extinction coefficient of 4-nitrophenol was taken as 1.62×10^4 M^−1 cm^−1. An enzyme activity of 1 U (unit) is defined as 1 μmole substrate hydrolyzed per 1 min at 22° C. at pH 9.8. […]

Nc1ncnc2c1ncn2[C@@H]1O[C@H](COP(=O)(O)OP(=O)(O)OP(=O)(O)O)[C@@H](O)[C@H]1O [ATP]
d.p.m. [^3H] thymidine incorporated into DNA/well (bone marrow MSCs; ATP 20 μM, no PLAP): 70,738 ± 1,367 d.p.m. | d.p.m. [^3H] thymidine incorporated into DNA/well (bone marrow MSCs; ATP 50 μM, no PLAP): 55,808 ± 1,480 d.p.m. | d.p.m. [^3H] thymidine incorporated into DNA/well (bone marrow MSCs; ATP 100 μM, no PLAP): 38,601 ± 1,940 d.p.m.

NCCCNCCSP(=O)(O)O [amifostine]
patients with reversible clinical hypotension, protracted nausea and vomiting [1]: 15-20%

B1: PLAP: highly purified native placental alkaline phosphatase derived from human placenta via conventional purification methods (protein, UniProt P05187 23-506, looked up)
Alkaline phosphatase, …: IIPVEEENPDFWNREAAEALGAAKKLQPAQTAAKNLIIFLGDGMGVSTVTAARILKGQKKDKLGPEIPLAMDRFPYVALSKTYNVDKHVPDSGATATAYLCGVKGNFQTIGLSAAARFNQCNTTRGNEVISVMNRAKKAGKSVGVVTTTRVQHASPAGTYAHTVNRNWYSDADVPASARQEGCQDIATQLISNMDIDVILGGGRKYMFRMGTPDPEYPDDYSQGGTRLDGKNLVQEWLAKRQGARYVWNRTELMQASLDPSVTHLMGLFEPGDMKYEIHRDSTLDPSLMEMTEAALRLLSRNPRGFFLFVEGGRIDHGHHESRAYRALTETIMFDDAIERAGQLTSEEDTLSLVTADHSHVFSFGGYPLRGSSIFGLAPGKARDRKAYTVLLYGNGPGYVLKDGARPDVTESESGSPEYRQQSAVPLDEETHAGEDVAVFARGPQAHLVHGVQEQTFIAHVMAFAACLEPYTACDLAPPAGTTD
change of the number of hematopoietic stem cells ([2]; 50 μg/ml PLAP, no Cyp): did not significantly change | decrease of the number of cells by Cyp ([2]; 200 μM Cyp, presence of 50 μg/ml PLAP): 10% | d.p.m. [^3H] thymidine incorporated into DNA/well (bone marrow MSCs; PLAP 200 nM + ATP 20 μM): 90,708 ± 2,518 d.p.m. | d.p.m. [^3H] thymidine incorporated into DNA/well (bone marrow MSCs; PLAP 200 nM + ATP 50 μM): 84,740 ± 3,231 d.p.m. | d.p.m. [^3H] thymidine incorporated into DNA/well (bone marrow MSCs; PLAP 200 nM + ATP 100 μM): 80,916 ± 2,252 d.p.m. | d.p.m. [^3H] thymidine incorporated into DNA/well (bone marrow MSCs; PLAP 200 nM + Cyp 50 μM): 81,887 ± 3,173 d.p.m. | d.p.m. [^3H] thymidine incorporated into DNA/well (bone marrow MSCs; PLAP 200 nM + Cyp 200 μM): 74,798 ± 2,408 d.p.m. | d.p.m. [^3H] thymidine incorporated into DNA/well (bone marrow MSCs; PLAP 200 nM, no ATP): 89,865 ± 2,021 d.p.m. | half-life time in human circulation [3]: about 7 days | specific activity of purified PLAP [4]: 685 Units per mg protein
